According to patent US20090035322A1 (Regeneron, published 2009):
Residue numbers refer to the chain shown, from its start.

B1: 2B7-7 (antibody, V domains shown)
VH: EVQLVESGGGLVQPGRSLRLSCAASGFTFRDYTMHWVRQGPGKGLEWVSGISWNSDYIGYADSVKGRFTISRDNAKNSLYLQMNSLRVEDTALYYCAKLSGTYRDYFYGVDVWGQGTTVTVSS
VL: EIVLTQSPATLSLSPGERAALSCRASQSVSNYLAWYQQKPGQAPRLLIYDASNRATGIPARFSGSGSGTDFTLTISSLEPEDFAVYYCQQRSNWPLTFGGGTKVEIR
notes: Fully human IgG, constant region not specified; also called 2B7-7N
B2: 6B9-4 (antibody, V domains shown)
VH: EEQLVESGGDLVQPGRSLRLSCAASGFTFHDYTMHWVRQAPGKGLEWVSGISWNSGSIGYADSVKGRFTISRDNAKNSLYLQMNSLRIEDTALYYCAKDPSYGSGSYYYYYGMDVWGQGTTVTVSS
VL: B1 VL with A20T, N31S, A34V, K39R, D50E, P80S, R107K
notes: Fully human IgG, constant region not specified; also called 6B9-4N
B3: 9C11-14 (antibody, V domains shown)
VH: QVQLVESGGDSVKPGGSLRLSCAASGFTFSDSYMTWIRQAPGKGLEWVSFISSSGSTIYYADSVKGRFTISRDNVKKSLYLQMNRLRAEDTAVYYCAREEPGNYVYYGMDVWGQGTTVTVSS
VL: EIVVTQSPATLSLSPGERATLSCRTSQTTTSYLAWYRQKPGQAPRLLIYDASNRAAGIPARFSGSGSGTDFTLTINSLEPEDFAVYYCQLRTNWITFGQGTRLEIK
notes: Fully human IgG, constant region not specified; also called 9C11-14N
B4: 10E3-17 (antibody, V domains shown)
VH: EVQLVESGGGLVQPGRSLRLSCAASGFTFRDYAMHWVRQVPGKGLEWVSGISWNRGTIGYADSVKGRFTISRDNAKNSLFLQMNSLRADDTALYYCAKDHYYGSGSPYGMDVWGQGTTVTVSS
VL: EIVLTQSPATLALSPGERATLSCRASQSVSKYLAWYQQKPGQAPRLLIYDASKRVTGIPGRLSGSGSGTDFTLTISSLEPEDFALYYCQQSSNWPITFGQGTRVEIK
notes: Fully human IgG, constant region not specified; also called 10E3-17N
B5: 3H7-6 (antibody, V domains shown)
VH: EVQLVESGGGLVQPGRSLRLSCAASGFTFYDYAMHWVRQAPGKGLEWVSGISWNSGYIGYADSVKGRFTISRDNAKNSLYLQMNSLRAEDTALYYCAKDNSYGKFYYGLDVWGQGTTVTVSS
VL: EIVMTQSPATLSVSPGERTTLSCRASQSVSSNLAWYLQKPGQAPRLLIYGASTRATGIPARFSGSGSGTEFILTISSLQSEDFAVYYCQQYNNWPITFGQGTRLEIK
notes: Fully human IgG, constant region not specified; also called 3H7-6N
B6: 9H4-12 (antibody, V domains shown)
VH: EVQLVESGGGLVQPGRSLRLSCAASGFTFDDYAMHWVRQVPGKGLEWVSGISWNSGSIGYADSVKGRFTISRDNAKNSLYLQMNSLRAEDTALYYCAKDMGYGNYYHYGMDVWGQGTTVTVSS
VL: DIVLTQSPATLSLSPGERATLSCRASQSVSSYLAWYQQKPGQAPRLLICDASHRATRIPARFSGSGSGTDFTLTISSLEPEDFAVYYCQQRSNWPITFGQGTRLEIK
notes: Fully human IgG, constant region not specified; also called 9H4-12N

target: T1, human CD20 (human, UniProt P11836 1-297); experiment: cell-based or functional assay
T1 sequence: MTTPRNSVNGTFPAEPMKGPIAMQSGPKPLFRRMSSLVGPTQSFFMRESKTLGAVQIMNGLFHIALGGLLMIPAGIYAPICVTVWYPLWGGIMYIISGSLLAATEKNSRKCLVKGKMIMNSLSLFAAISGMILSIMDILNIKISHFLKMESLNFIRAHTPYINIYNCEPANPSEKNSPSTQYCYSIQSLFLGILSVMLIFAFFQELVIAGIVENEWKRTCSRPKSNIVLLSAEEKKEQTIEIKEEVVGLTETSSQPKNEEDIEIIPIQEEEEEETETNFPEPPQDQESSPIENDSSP

| Binder | ADCC EC50 (pM), Daudi + PBMC |
| --- | --- |
| B1 | 1.99 pM |
| B2 | 4.27 pM |
| B3 | 10.2 pM |
| B4 | 1.2 pM |
| B5 | 11.1 pM |
| B6 | 33.8 pM |

target: T2, mutant human CD20 #4 (N166D) (human, UniProt P11836 1-297); experiment: FACS, mutant-hCD20 MG87 cells; 100%=best antibody
T2 construct: Stably expressed on MG87 cells
T2 sequence: T1 sequence with N166D
Description: (§1) Briefly, approximately 1×10⁶ cells from each stably transfected cell line expressing a mutant human CD20 were collected and incubated with each anti-human antibody, at 10 μg/ml, on ice for 1 hr, followed by incubation with APC-conjugated goat anti-human IgG (Jackson Immunolabs), at 10 μg/ml, on ice for 45 min. For each antibody, binding to each mutant human CD20 was assessed by flow cytometry.

| Binder | Percent of Binding to Mutant Human CD20 |
| --- | --- |
| B1 | 100% |
| B2 | 3% |
| B3 | 87% |
| B4 | 1% |
| B5 | 4% |
| B6 | 0% |

Target: T3, mutant human CD20 #3 (A170S, P172S) (human, UniProt P11836 1-297)
T3 construct: Stably expressed on MG87 cells
T3 chain: T1 sequence with A170S, P172S
Experiment: FACS, mutant-hCD20 MG87 cells; 100%=best antibody
Description: as §1

| Binder | Percent of Binding to Mutant Human CD20 |
| --- | --- |
| B1 | 87% |
| B2 | 64% |
| B3 | 0% |
| B4 | 6% |
| B5 | 43% |
| B6 | 0% |

target: T4, mutant human CD20 #5 (P172S) (human, UniProt P11836 1-297); experiment: FACS, mutant-hCD20 MG87 cells; 100%=best antibody
T4 construct: Stably expressed on MG87 cells
T4 sequence: T1 sequence with P172S
Description: as §1

| Binder | Percent of Binding to Mutant Human CD20 |
| --- | --- |
| B1 | 88% |
| B2 | 67% |
| B3 | 29% |
| B4 | 49% |
| B5 | 45% |
| B6 | 2% |

Target: T5, mutant human CD20 #6 (Y77F, N166D) (human, UniProt P11836 1-297)
T5 construct: Stably expressed on MG87 cells
T5 chain: T1 sequence with Y77F, N166D
Experiment: FACS, mutant-hCD20 MG87 cells; 100%=best antibody
Description: as §1

| Binder | Percent of Binding to Mutant Human CD20 |
| --- | --- |
| B1 | 12% |
| B2 | 1% |
| B3 | 87% |
| B4 | 1% |
| B5 | 0% |
| B6 | 1% |

target: T6, mutant human CD20 #2 (N163D) (human, UniProt P11836 1-297); experiment: FACS, mutant-hCD20 MG87 cells; 100%=best antibody
T6 construct: Stably expressed on MG87 cells
T6 sequence: T1 sequence with N163D
Description: as §1

| Binder | Percent of Binding to Mutant Human CD20 |
| --- | --- |
| B1 | 40% |
| B2 | 3% |
| B3 | 83% |
| B4 | 1% |
| B5 | 1% |
| B6 | 0% |

target: T7, mutant human CD20 #10 (A157V) (human, UniProt P11836 1-297); experiment: FACS, mutant-hCD20 MG87 cells; 100%=best antibody
T7 construct: Stably expressed on MG87 cells
T7 sequence: T1 sequence with A157V
Description: as §1

| Binder | Percent of Binding to Mutant Human CD20 |
| --- | --- |
| B1 | 83% |
| B2 | 75% |
| B3 | 83% |
| B4 | 87% |
| B5 | 80% |
| B6 | 52% |
